US8207309B2, “Human synthetic single-chain antibodies directed against the common epitope of mutant P53 and their uses” (Ramot at Tel-Aviv University Ltd., priority 2005, dated 2012)
“Also recorded” adds a separate entry of the source. Where two headings read alike, the source gives them in different places.

B1: A4 scFv: human scFv clone; VL CDRs SEQ ID NOs:36-38 (protein)
scFv: VQLLESGGGLVQPGGSLRLSCAASGFTFSGYWMHWVRQAPGKGLEWVSEISGSGDSTHYGDSVKGRFTISRDNSKNTLYLQMNSLRAEDTAVYYCARGRNGSLDYWGQGTLVTVSSGSAGGGGSGGGGSGGGGSDIVLTQPPSASGTPGQRVTISCTGNSSNIGAGYDVHWYQQLPGKAPKLLIYSNNQRPSGVPDRFSGSKSGTSASLAISGLRSEDEADYYCAAWDDSLSSVVFGGGTKLTV
B2: B6 scFv: human scFv clone; VL CDRs SEQ ID NOs:27-29 (protein)
scFv: VQLLESGGGLVQPGGSLRLSCAASGFTFSGYWMHWVRQAPGKGLEWVSEISGSGDSTHYGDSVKGRFTISRDNSKNTLYLQMNSLRAEDTAVYYCARGRNGSLDYWGQGTLVTVSSGSAGGGGSGGGGSGGGGSDIVLTQPPSASGTPGQRVTISCTGSSANIGAGYDVHWYQQLPGKAPKLLIYDNDKRPSGVPDRFSGSKSGTSASLAISGLRSEDEADYYCAAWDDRLSGVVFGGGTKVTV
B3: A6 scFv: human scFv, SEQ ID NO:115; VL CDRs SEQ ID NOs:60-62 (protein)
scFv: VQLLESGGGLVQPGGSPRLSCAASGFTFSGYWMHWVRQAPGKGLEWVSEISGSGDSTHYGDSVKGRFTISRDNSKNTLYLQMNSLRAEDTAVYYCARGRNGSLDYWGQGTLVTVSSGSAGGGGSGGGGSGGGGSDIVLTQPPSASGTPGQRVTISCTGGRFNIGDYAVNWYQQLPGKAPKLLIYDNDRRPSGVSDRFSGSKSGTSASLAISGLRSEDEADYYCAAWDDSLDGLVFGGGTQLTV
modifications: Single chain Fv

How the values were obtained:
[1] = target: T1, FRHSVV peptide (SEQ ID NO:1; common epitope of mutant p53) (Homo sapiens, UniProt P04637); assay: Binding specificity ELISA of scFvs (FIG. 9)
T1 construct: A biotin conjugate of the peptide (FRHSVV)

[2] = tested on: BSA, Streptavidin, amyloid peptide (SEQ ID NO:2), MAP-PrP, PaP; conditions: ELISA, FIG. 9, SEQ ID NOs:2-4
[3] = target: T2, common epitope of mutant p53 (FRHSVV; SEQ ID NO:1) (Homo sapiens, UniProt P04637); assay: BIAcore analysis of scFv binding to immobilized FRHSVV-biotin peptide; conditions: FRHSVV-biotin on streptavidin chip, 1:1 Langmuir model, read-out: affinity (binding constant) towards the common epitope (SEQ ID NO:1)
T2 construct: A biotin conjugate of the peptide (FRHSVV)
Method: Binding was determined using the BIACore at the indicated concentrations of antibodies. RU=resonance units. The binding constant was determined using the software that is supplied with the BIAcore instrument (wwwdotBiacoredotcom).
BIAcore Analysis—Real time analysis of the interaction between scFvs and FHRSVV-biotin were determined using BIAcore technology (Biacore AB, Uppsala, Sweden) according to manufacturer's instructions. The peptide FRHSVV-biotin was immobilized on a streptavidin coated sensor chip surface SA. The amount of immobilized peptide was 200 pg/mm^2, the binding was in HBS buffer (10 mM Hepes PH 7.4, 150 mM NaCl, 0.005% Tween-20, 3.4 mM EDTA). Several concentrations of purified scFv (62 nM, 125 nM, 250 nM, 1 μM and 2 μM) were injected at a flow rate of 20 μl/minute. […] Regeneration of the sensor chip was performed using 10 μl of 10 mM HCl. The kinetics parameters of the binding reactions were determined by BIAevaluation 4.0 Software (Biacore AB) using the 1:1 Langmuir model. The dissociation rate (off-rate) constant Kd and the association rate constant (on-rate) Ka were determined simultaneously according to manufacturer's instructions.
The scFv F2 and E6 antibodies display high affinity binding of the mutant epitope—To determine the affinity binding of the isolated scFvs towards the target peptide (SEQ ID NO:1), the BIAcore technology was employed. […]

Molecule | binding to peptide of the common epitope of mutant p53 (SEQ ID NO:1) [1] | binding to peptide of the common epitope of mutant p53 (SEQ ID NO:1) ([1]; listed as A4) | binding to the other peptides or proteins tested [2] | Kd [3]
B1 | high affinity | highly specific; also recorded: high binding specificity | low affinity | –
B2 | – | – | low affinity | –
B3 | – | – | – | 23 nM
